{"source": "the Human Domainome abundance scans (Beltran et al. 2025)", "note": "± gives the uncertainty stated by the source.", "data": [{"assay": "abundance fitness (aPCA) (normalised: wild type 0, dead -1); higher = more abundant; growth selection in yeast, the domain comes from the species named", "details": "Homo sapiens", "values": [{"substance": "Scaffold attachment factor B2 K44L, Q14151", "abundance fitness": "-0.256 ± 0.11"}, {"substance": "Scaffold attachment factor B2 K44M, Q14151", "abundance fitness": "-0.379 ± 0.14"}, {"substance": "Scaffold attachment factor B2 K44N, Q14151", "abundance fitness": "-0.27 ± 0.13"}, {"substance": "Scaffold attachment factor B2 K44P, Q14151", "abundance fitness": "-0.509 ± 0.088"}, {"substance": "Scaffold attachment factor B2 K44Q, Q14151", "abundance fitness": "-0.1 ± 0.18"}, {"substance": "Scaffold attachment factor B2 K44R, Q14151", "abundance fitness": "-0.06 ± 0.071"}, {"substance": "Scaffold attachment factor B2 K44S, Q14151", "abundance fitness": "-0.183 ± 0.083"}, {"substance": "Scaffold attachment factor B2 K44T, Q14151", "abundance fitness": "-0.347 ± 0.1"}, {"substance": "Scaffold attachment factor B2 K44V, Q14151", "abundance fitness": "-0.221 ± 0.084"}, {"substance": "Scaffold attachment factor B2 K44W, Q14151", "abundance fitness": "-0.508 ± 0.081"}, {"substance": "Scaffold attachment factor B2 K44Y, Q14151", "abundance fitness": "-0.494 ± 0.15"}, {"substance": "Scaffold attachment factor B2 K53A, Q14151", "abundance fitness": "-0.516 ± 0.08"}, {"substance": "Scaffold attachment factor B2 K53C, Q14151", "abundance fitness": "-0.368 ± 0.081"}, {"substance": "Scaffold attachment factor B2 K53D, Q14151", "abundance fitness": "-0.716 ± 0.22"}, {"substance": "Scaffold attachment factor B2 K53E, Q14151", "abundance fitness": "-0.136 ± 0.091"}, {"substance": "Scaffold attachment factor B2 K53F, Q14151", "abundance fitness": "-0.445 ± 0.13"}, {"substance": "Scaffold attachment factor B2 K53G, Q14151", "abundance fitness": "-0.473 ± 0.076"}, {"substance": "Scaffold attachment factor B2 K53L, Q14151", "abundance fitness": "-0.326 ± 0.078"}, {"substance": "Scaffold attachment factor B2 K53M, Q14151", "abundance fitness": "-0.338 ± 0.11"}, {"substance": "Scaffold attachment factor B2 K53N, Q14151", "abundance fitness": "-0.463 ± 0.14"}, {"substance": "Scaffold attachment factor B2 K53P, Q14151", "abundance fitness": "-0.204 ± 0.099"}, {"substance": "Scaffold attachment factor B2 K53Q, Q14151", "abundance fitness": "-0.274 ± 0.12"}, {"substance": "Scaffold attachment factor B2 K53R, Q14151", "abundance fitness": "-0.047 ± 0.085"}, {"substance": "Scaffold attachment factor B2 K53T, Q14151", "abundance fitness": "-0.352 ± 0.11"}, {"substance": "Scaffold attachment factor B2 K53V, Q14151", "abundance fitness": "-0.577 ± 0.083"}, {"substance": "Scaffold attachment factor B2 K53W, Q14151", "abundance fitness": "-0.39 ± 0.11"}, {"substance": "Scaffold attachment factor B2 K53Y, Q14151", "abundance fitness": "-0.054 ± 0.43"}, {"substance": "Scaffold attachment factor B2 K61A, Q14151", "abundance fitness": "0.022 ± 0.084"}, {"substance": "Scaffold attachment factor B2 K61C, Q14151", "abundance fitness": "-0.303 ± 0.15"}, {"substance": "Scaffold attachment factor B2 K61D, Q14151", "abundance fitness": "-0.082 ± 0.17"}, {"substance": "Scaffold attachment factor B2 K61G, Q14151", "abundance fitness": "-0.015 ± 0.1"}, {"substance": "Scaffold attachment factor B2 K61H, Q14151", "abundance fitness": "-0.128 ± 0.11"}, {"substance": "Scaffold attachment factor B2 K61L, Q14151", "abundance fitness": "-0.282 ± 0.083"}, {"substance": "Scaffold attachment factor B2 K61M, Q14151", "abundance fitness": "-0.186 ± 0.11"}, {"substance": "Scaffold attachment factor B2 K61N, Q14151", "abundance fitness": "-0.002 ± 0.095"}, {"substance": "Scaffold attachment factor B2 K61P, Q14151", "abundance fitness": "-0.203 ± 0.13"}, {"substance": "Scaffold attachment factor B2 K61Q, Q14151", "abundance fitness": "-0.072 ± 0.096"}, {"substance": "Scaffold attachment factor B2 K61R, Q14151", "abundance fitness": "-0.184 ± 0.095"}, {"substance": "Scaffold attachment factor B2 K61S, Q14151", "abundance fitness": "-0.359 ± 0.091"}, {"substance": "Scaffold attachment factor B2 K61T, Q14151", "abundance fitness": "-0.22 ± 0.17"}, {"substance": "Scaffold attachment factor B2 K61V, Q14151", "abundance fitness": "-0.094 ± 0.095"}, {"substance": "Scaffold attachment factor B2 K61W, Q14151", "abundance fitness": "-0.357 ± 0.1"}, {"substance": "Scaffold attachment factor B2 K61Y, Q14151", "abundance fitness": "-0.792 ± 0.32"}, {"substance": "Scaffold attachment factor B2 K62C, Q14151", "abundance fitness": "-0.303 ± 0.12"}, {"substance": "Scaffold attachment factor B2 K62D, Q14151", "abundance fitness": "-0.123 ± 0.13"}, {"substance": "Scaffold attachment factor B2 K62E, Q14151", "abundance fitness": "-0.002 ± 0.1"}, {"substance": "Scaffold attachment factor B2 K62F, Q14151", "abundance fitness": "-0.385 ± 0.1"}, {"substance": "Scaffold attachment factor B2 K62G, Q14151", "abundance fitness": "-0.115 ± 0.07"}, {"substance": "Scaffold attachment factor B2 K62H, Q14151", "abundance fitness": "-0.083 ± 0.15"}, {"substance": "Scaffold attachment factor B2 K62L, Q14151", "abundance fitness": "-0.212 ± 0.11"}, {"substance": "Scaffold attachment factor B2 K62M, Q14151", "abundance fitness": "-0.288 ± 0.19"}, {"substance": "Scaffold attachment factor B2 K62N, Q14151", "abundance fitness": "-0.246 ± 0.14"}, {"substance": "Scaffold attachment factor B2 K62P, Q14151", "abundance fitness": "-0.407 ± 0.2"}, {"substance": "Scaffold attachment factor B2 K62Q, Q14151", "abundance fitness": "-0.125 ± 0.13"}, {"substance": "Scaffold attachment factor B2 K62R, Q14151", "abundance fitness": "-0.075 ± 0.078"}, {"substance": "Scaffold attachment factor B2 K62S, Q14151", "abundance fitness": "-0.125 ± 0.095"}, {"substance": "Scaffold attachment factor B2 K62V, Q14151", "abundance fitness": "-0.163 ± 0.1"}, {"substance": "Scaffold attachment factor B2 K62W, Q14151", "abundance fitness": "-0.375 ± 0.12"}, {"substance": "Scaffold attachment factor B2 K62Y, Q14151", "abundance fitness": "-0.447 ± 0.37"}, {"substance": "Scaffold attachment factor B2 K65A, Q14151", "abundance fitness": "-0.138 ± 0.12"}, {"substance": "Scaffold attachment factor B2 K65C, Q14151", "abundance fitness": "-0.145 ± 0.12"}, {"substance": "Scaffold attachment factor B2 K65D, Q14151", "abundance fitness": "0.036 ± 0.14"}, {"substance": "Scaffold attachment factor B2 K65F, Q14151", "abundance fitness": "-0.396 ± 0.22"}, {"substance": "Scaffold attachment factor B2 K65H, Q14151", "abundance fitness": "0.463 ± 0.23"}, {"substance": "Scaffold attachment factor B2 K65I, Q14151", "abundance fitness": "-0.241 ± 0.14"}, {"substance": "Scaffold attachment factor B2 K65L, Q14151", "abundance fitness": "-0.205 ± 0.1"}, {"substance": "Scaffold attachment factor B2 K65M, Q14151", "abundance fitness": "-0.181 ± 0.11"}, {"substance": "Scaffold attachment factor B2 K65N, Q14151", "abundance fitness": "-0.148 ± 0.37"}, {"substance": "Scaffold attachment factor B2 K65P, Q14151", "abundance fitness": "-0.054 ± 0.18"}, {"substance": "Scaffold attachment factor B2 K65Q, Q14151", "abundance fitness": "-0.309 ± 0.28"}, {"substance": "Scaffold attachment factor B2 K65R, Q14151", "abundance fitness": "-0.136 ± 0.099"}, {"substance": "Scaffold attachment factor B2 K65T, Q14151", "abundance fitness": "0.044 ± 0.17"}, {"substance": "Scaffold attachment factor B2 K65V, Q14151", "abundance fitness": "-0.111 ± 0.086"}, {"substance": "Scaffold attachment factor B2 K65W, Q14151", "abundance fitness": "-0.269 ± 0.12"}, {"substance": "Scaffold attachment factor B2 K65Y, Q14151", "abundance fitness": "-0.35 ± 0.16"}, {"substance": "Scaffold attachment factor B2 L30A, Q14151", "abundance fitness": "-0.28 ± 0.099"}, {"substance": "Scaffold attachment factor B2 L30C, Q14151", "abundance fitness": "-0.708 ± 0.094"}, {"substance": "Scaffold attachment factor B2 L30D, Q14151", "abundance fitness": "-0.086 ± 0.15"}, {"substance": "Scaffold attachment factor B2 L30E, Q14151", "abundance fitness": "-0.232 ± 0.094"}]}]}
